Article PMC6771166

B1: CD73 (ecto‐5′‐nucleotidase): N311Q (protein)
parent chain: MCPRAARAPATLLLALGAVLWPAAGAWELTILHTNDVHSRLEQTSEDSSKCVNASRCMGGVARLFTKVQQIRRAEPNVLLLDAGDQYQGTIWFTVYKGAEVAHFMNALRYDAMALGNHEFDNGVEGLIEPLLKEAKFPILSANIKAKGPLASQISGLYLPYKVLPVGDEVVGIVGYTSKETPFLSNPGTNLVFEDEITALQPEVDKLKTLNVNKIIALGHSGFEMDKLIAQKVRGVDVVVGGHSNTFLYTGNPPSKEVPAGKYPFIVTSDDGRKVPVVQAYAFGKYLGYLKIEFDERGNVISSHGNPILLNSSIPEDPSIKADINKWRIKLDNYSTQELGKTIVYLDGSSQSCRFRECNMGNLICDAMINNNLRHTDEMFWNHVSMCILNGGGIRSPIDERNNGTITWENLAAVLPFGGTFDLVQLKGSTLKKAFEHSVHRYGQSTGEFLQVGGIHVVYDLSRKPGDRVVKLDVLCTKCRVPSYDPLKMDEVYKVILPNFLANGGDGFQMIKDELLRHDSGDQDINVVSTYISKMKVIYPAVEGRIKFSTGSHCHGSFSLIFLSLWAVIFVLYQ
B2: CD73 (ecto‐5′‐nucleotidase): N333Q (protein)
parent chain: B1 parent chain

Assay: 5′-nucleotidase kit, transfected PLC/PRF/5 lysates
Details: glycan lost; control: wild type

Row | Protein | enzymatic_activity, percent_of_wt
1 | B1 | decreases
2 | B2 | decreases
